Where two headings read alike, the source gives them in different places. Each block holds one binder with its values, some of them ahead of it.
Assays:
[1] = molecular target: T1, human CCR8 carried on proteoliposomes (human, UniProt P51685 1-355); assay: SPR
[2] = molecular target: T2, human CCR4 carried on liposomes (human, UniProt P51679 1-360); assay: SPR
T2 sequence (looked up): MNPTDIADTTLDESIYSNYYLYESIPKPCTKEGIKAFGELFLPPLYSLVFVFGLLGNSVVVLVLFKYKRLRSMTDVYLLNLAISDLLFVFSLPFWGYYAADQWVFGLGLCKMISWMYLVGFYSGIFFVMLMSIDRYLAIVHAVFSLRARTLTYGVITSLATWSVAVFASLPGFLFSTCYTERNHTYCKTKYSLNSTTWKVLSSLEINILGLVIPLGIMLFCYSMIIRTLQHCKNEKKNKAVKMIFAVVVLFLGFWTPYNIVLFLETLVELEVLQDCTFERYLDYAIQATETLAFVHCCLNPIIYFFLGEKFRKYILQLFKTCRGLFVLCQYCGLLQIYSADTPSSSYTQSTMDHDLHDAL

[3] = molecular target: T1, human CCR8 carried on proteoliposomes; assay: SPR; remark: listed apart in the source
[4] = molecular target: T3, human CCR8 (HA-tagged) on stably transfected HEK293 cells (human, UniProt P51685 1-355); assay: flow cytometry on cells
[5] = molecular target: T3, human CCR8 (HA-tagged) on stably …; assay: flow cytometry on cells; remark: listed apart in the source

Kd [1]: 1.1 ± 0.4 nM
koff [1]: 0.00042 s⁻¹
binding result [2]: binds
Kd [3]: 11.7 nM
B1: biotinylated human recombinant CCL17 (ligand, UniProt Q92583 24-94, looked up)
chain: ARGTNVGRECCLEYFKGAIPLRKLKTWYQTSEDCSRDAIVFVTVQGRAICSDPNNKRVKNAVKYLQSLERS
modifications: biotin (biotinylated; site not stated)

IC50 [4]: 9.4 nM
IC50 [5]: 4.9 nM
B2: unlabeled human recombinant CCL17 (ligand, UniProt Q92583 24-94, looked up)
chain: B1 chain

IC50 [5]: 0.58 nM
B3: unlabeled human recombinant CCL1 (ligand, UniProt P22362 24-96, looked up)
chain: KSMQVPFSRCCFSFAEQEIPLRAILCYRNTSSICSNEGLIFKLKRGKEACALDTVGWVQRHRKMLRHCPSKRK

From PMC7616283 (Nature cardiovascular research, 2024)
